Source: patent US20230110702A1 (IMMUNEONCO BIOPHARMACEUTICALS SHANGHAI, published 2023)

B1: IMM5601 (bispecific antibody, human IgG1, kappa)
heavy: not shown
light: DIVMTQSHLSMSTSLGDPVSITCKASQDVSTVVAWYQQKPGQSPRRLIYSASYRYIGVPDRFTGSGAGTDFTFTISSVQAEDLAVYYCQQHYSPPYTFGGGTKLEIKRTVAAPSVFIFPPSDEQLKSGTASVVCLLNNFYPREAKVQWKVDNALQSGNSQESVTEQDSKDSTYSLSSTLTLSKADYEKHKVYACEVTHQGLSSPVTKSFNRGEC
notes: also called recombinant fusion protein; SIRPαD1-linker-anti-CD38 heavy chain + anti-CD38 light chain
B2: IMM5602 (bispecific antibody, human IgG1, kappa)
heavy: QVQLVQSGAEVAKPGTSVKLSCKASGYTFTDYWMQWVKQRPGQGLEWIGTIYPGDGDTGYAQKFQGKATLTADKSSKTVYMHLSSLASEDSAVYYCARGDYYGSNSLDYWGQGTSVTVSSASTKGPSVFPLAPSSKSTSGGTAALGCLVKDYFPEPVTVSWNSGALTSGVHTFPAVLQSSGLYSLSSVVTVPSSSLGTQTYICNVNHKPSNTKVDKRVEPKSCDKTHTCPPCPAPELLGGPSVFLFPPKPKDTLMISRTPEVTCVVVDVSHEDPEVKFNWYVDGVEVHNAKTKPREEQYNATYRVVSVLTVLHQDWLNGKEYKCKVSNKALPAPIAATISKAKGQPREPQVYTLPPSREEMTKNQVSLTCLVKGFYPSDIAVEWESNGQPENNYKTTPPVLDSDGSFFLYSKLTVDKSRWQQGNVFSCSVMHEALHNHYTQKSLSLSPGK
light: not shown
notes: also called recombinant fusion protein; anti-CD38 heavy chain + SIRPαD1-linker-anti-CD38 light chain

How the values were obtained:
[1] = target: T1, CD47 (UniProt Q08722 19-323, limits assumed); assay: flow cytometry on CD38^-CD47^+ Jurkat cells, FITC anti-human IgG-Fc
T1 construct: whole, on cells; also called CD47 on CD38^-CD47^+ Jurkat cells; CD47 on CD38^+CD47^+ NCI-H929 cells
Procedure: Cells were washed with cold 1% BSA-PBS twice, and then incubated with FITC-conjugated secondary antibody against human IgG-Fc (Cat #F9512, Sigma) for 45 min. Cells were washed twice and re-suspended in 200 μl PBS. Then, the cells were subject to FACS analysis using a flow cytometer (Merck Millipore, Guava® easyCyte 5HT).

[2] = target: T1, CD47; assay: FACS competition against SIRPα-mFc (3 µg/ml) on CD47^+CD38^+ NCI-H929 cells, PE anti-mouse IgG-Fc
Procedure: The resultant mixtures were added to the wells of a 96-well plate each containing 50 μl 1×10⁶/ml CD47⁺CD38⁺ NCI-H929 cells, and the plate was incubated at 4° C. for 45 min. […] Cells were washed twice, re-suspended in 200 μl PBS, and subject to FACS analysis.

| Binder | EC50 [1] [nM] | IC50 [2] [nM] |
| --- | --- | --- |
| B1 | 14.1 | 30.7 |
| B2 | 21.9 | – |
